Results on 2 substances are retold here after patent US6444793.

For this experiment, the target named is patched (receptor for Shh), on patched-transfected EBNA-293 cells. As to the kind of experiment: FACS competition with Shh-Ig on patched-transfected EBNA-293 cells.

For orientation: IC50 means the midpoint of a concentration-inhibition curve. A high value points to weaker potency.

Chain of patched (receptor for Shh), on patched-transfected EBNA-293 cells (A3KBI9 whole entry): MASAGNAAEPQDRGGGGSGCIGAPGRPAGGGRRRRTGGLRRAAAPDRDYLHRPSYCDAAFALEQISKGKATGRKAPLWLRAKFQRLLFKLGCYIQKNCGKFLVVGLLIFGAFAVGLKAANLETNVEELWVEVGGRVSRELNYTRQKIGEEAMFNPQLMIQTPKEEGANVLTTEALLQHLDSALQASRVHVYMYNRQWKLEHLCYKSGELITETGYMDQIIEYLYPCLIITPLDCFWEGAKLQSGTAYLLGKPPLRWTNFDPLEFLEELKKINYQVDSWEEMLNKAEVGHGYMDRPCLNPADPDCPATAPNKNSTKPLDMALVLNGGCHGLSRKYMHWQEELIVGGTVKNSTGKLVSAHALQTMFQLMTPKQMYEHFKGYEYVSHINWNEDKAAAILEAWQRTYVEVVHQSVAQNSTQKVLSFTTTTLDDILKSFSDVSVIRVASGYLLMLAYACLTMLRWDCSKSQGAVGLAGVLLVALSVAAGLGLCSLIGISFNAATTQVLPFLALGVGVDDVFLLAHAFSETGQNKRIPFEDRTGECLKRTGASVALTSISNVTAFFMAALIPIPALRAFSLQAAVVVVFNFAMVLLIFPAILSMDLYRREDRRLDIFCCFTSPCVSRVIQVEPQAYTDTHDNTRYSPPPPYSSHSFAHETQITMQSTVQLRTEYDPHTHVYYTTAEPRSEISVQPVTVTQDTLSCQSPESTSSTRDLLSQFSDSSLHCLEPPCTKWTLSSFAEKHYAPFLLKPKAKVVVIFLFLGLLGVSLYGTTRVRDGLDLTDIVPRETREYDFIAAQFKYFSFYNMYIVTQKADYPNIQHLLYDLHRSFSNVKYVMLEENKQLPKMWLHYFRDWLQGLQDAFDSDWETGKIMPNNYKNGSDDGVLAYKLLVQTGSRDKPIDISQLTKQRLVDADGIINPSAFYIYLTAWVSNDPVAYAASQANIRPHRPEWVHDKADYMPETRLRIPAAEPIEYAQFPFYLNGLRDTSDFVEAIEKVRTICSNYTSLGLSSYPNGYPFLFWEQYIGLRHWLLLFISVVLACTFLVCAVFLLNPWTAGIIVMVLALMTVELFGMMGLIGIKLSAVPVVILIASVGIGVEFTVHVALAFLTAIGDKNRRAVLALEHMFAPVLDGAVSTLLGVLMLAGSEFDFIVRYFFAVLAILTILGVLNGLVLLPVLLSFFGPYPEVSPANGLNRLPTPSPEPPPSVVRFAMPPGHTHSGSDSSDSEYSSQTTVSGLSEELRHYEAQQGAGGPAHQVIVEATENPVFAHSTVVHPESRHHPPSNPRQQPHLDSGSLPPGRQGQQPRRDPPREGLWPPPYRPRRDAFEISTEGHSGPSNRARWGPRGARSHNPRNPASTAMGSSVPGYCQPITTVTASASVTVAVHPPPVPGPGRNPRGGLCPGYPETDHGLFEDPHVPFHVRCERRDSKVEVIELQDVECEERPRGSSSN

“tethered human Sonic hedgehog (N-terminal fragment with a palmitoyl group at the N-terminus and cholesterol at the C-terminus, purified from High Five insect cells) (from UniProt Q14623 28-201) (ligand)” showed an IC50 of 0.4 µg/mL.

In the case of “soluble human Sonic hedgehog N-terminal fragment (unmodified, Cys-1 to Gly-174, produced in E. coli) (from UniProt Q14623 28-201) (ligand)”, the concentration for half-maximal inhibition (IC50) is 0.15 µg/mL.
